From patent publication US20250213627A1, “RECOMBINANT MICROORGANISM-BASED METHODS AND COMPOSITIONS FOR TREATMENT OF DISEASE” (Baylor College of Medicine, priority 2021, published 2025)

Legend:
rat IgG = test: ELISA positive control, wells coated with 1 µg/ml rat IgG, anti-rat IgG-HRP and TMB
[1] = target: Kv1.3 potassium channel (species not stated for this experiment); test: cell-based or functional assay

Substance	reading at 450 nm (rat IgG)	block of peak Kv1.3 currents by culture supernatant (patch-clamp) [1]
anti-rat IgG-HRP (antibody)	3.3 OD 450 nm	
HA-tagged ShK-235 secreted by LrS235-HA (peptide)		25%
